Experimental data published in the domain aggregation screens of Martell et al. (2025).

Assay: soluble fraction after stress (log2 fold change); higher = more stays soluble; pooled small domains, quantitative proteomics
Conditions: stress: 75 degC
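Note: 20 min heating vs room temperature control held 20 min.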

| Sequence | soluble fraction (log2) |
| --- | --- |
| HMSTIAAMADPRAWALEMLGFPPGTVKPSKREIQVRFRESLRDVHPDHGGDSRTASASINDLSEARRVLLS | -0.36 |
| HMSTLGIRIKHYRTDSNLTQKELAGLINVKRDALANWETDRALPDVMNLKKLAEVFQVSTDELLQV | -1.02 |
| HMSTLTGTQRAAVVLMQMSPPNAARVMAQFTDAEAEEIAAEIVRLRKVDPEVAEQIMKDFHEAALSS | -0.226 |
| HMSTLTLTSGTYAVGENIKAGKYTIMGSGSIAISSSGKARVNSNLTADRKDYVLNDDETIKIKGKAQFIPI | -0.315 |
| HMSTMKIVRVKSNLKIGQEITSKDIEVVEVGAYNMPSEVMKNSEDVIGKYASAEMIKGEYVLAAKISDTP | 0.151 |
| HMSTMNRLPRHEQILKLVRANGFMPIEELARLLDVTPQTIRRDINTLSEENLLRRFHGGAALGPSVE | -0.371 |
| HMSTMTGTVDTPGASLNVRTGAWGPIVGQLAHGSKVTIIGSSGDWFKISYNGATRYVHKNYVNTT | -0.683 |
| HMSTMVEIPNVVGMTIKEAKEALGNLGLSISKISGSNEDSAIVTEVSPAPGSSVKRDESITLVGQPK | 0.683 |
| HMSTPAKVTPTNPIVKQLFNAAETQIKNKDIQNAIASYEKADTLTTDEKVKQYIHYQLSTLKDDN | -0.0812 |
| HMSTPERQEVLDILKRQGEMTPLQIAGQISRTSKSVSNILSKLKREGFVANGAKYGSWVSTES | -0.0675 |
| HMSTPTVDTKTKLDLYNLLYKKDLNYLDAYNFVLDNFGSDNIDIMFKMLGLDFTNWVIENKPE | 0.139 |
| HMSTQYKTGHYKTTDALNLRASYSTSSNVLLTIPKGKTIVVTRVHNNEWGQVEYNGKTGWIYLEYTAYTES | -1.85 |
| HMSTSAAELLRTARQQAGMSQSAVAELAKTSQSAIAMYEAGNREPSLPVLQRLLAATGHQLSLSVLP | -0.337 |
| HMSTTILSFQNRVVIETLHNEGRSLRYIANYLGFSKATIFNELHRLNSEYRAELAQADFERKVSQR | -3.06 |
| HMSTVAETVYNEIRDDILYGELQPGVKLKLEALRERYSVGVNTLREVLNRLVASGFVFVEGQKGFRVV | 0.365 |
| HMSTVEKDSELGGNFRIASYPTGKGQISEAIRSMIVRAKQVGVNIRLNTEATEEPLRALAPNAVILATG | 0.188 |
| HMSTVELPVQINGKVRGRITVPANAGQEDVKQAALADSKVQRYIEGASIRKVIVVPRKLVNIVV | -0.215 |
| HMSTVTGLINYLSSGLIKGVGEATARKLVDHFGLDVLDIIQFNPQRLLEVDGIGEARAEMIASSFSEQK | -1.21 |
| HMSVDIIPGKADQKVRLIHDPAIVGVTTGGVKTAGPHTLIQIELGPNERPYKRLSLLELIPEG | -0.347 |

| Sequence | soluble fraction (log2) |
| --- | --- |
| HMSVDVGMQLRKLREERKISMRELARLSGLSANALSMIERGLTSPSVSTLNKLAGALEVPITAFFRI | -1.35 |
| HMSVEVPNLIGKTLDQVDIDLKSLDLSFVILDSARYNSSFKPLSVIDHQPISGAKVKVNRKIYLTINPS | -0.411 |
| HMSVKIELNENEQAIFTAVQKVNEAVLPELRAQFSDMSNKAWDNSVKMLTKNNLLKVSKEGEILYIRM | -1.22 |
| HMSVKSVSLRKISYKVRRGDSLYNIAKNFSLSINDITHWNSINKKSYLQPGQRLTLYINPRN | -2.18 |
| HMSVKVFRDQILLNNDSDKMLQLSFSNLFGQKVLETSISPGKSAISTGNLPPGIYFITTSPATGVMRVII | -1.78 |
| HMSVLRLGNRGPDVRKLQLLLNSTLVPSPQLTVDGDFGKRTEQAVVTFQQMRGLPQDGIVGQRTWALLGQT | -0.652 |
| HMSVLSVASKNQAINPGQVVALLKDGIKLNDDGRVEILDNNNNIRYNEKGNLLSIEERVKEFLDANPHFRQ | -0.399 |
| HMSVLVLPMLKELTHEDREVVELFYLNDMSVREIALIISVPIGTVKSRLHRARAQLKHQIVNLNQ | -3.76 |
| HMSVPVNAPMPGTILDIKVKAGAAVKAGDVVMILEAMKMENEISAPQDGTIASIDVRKGDTVNSGDVLYTM | -0.198 |
| HMSVSVNAPMPGNILDVRAKTGESIQKGQVIVILEAMKMENEIMAPQDGKISSINTSKGSTVNSGDLLFTM | -0.106 |
| HMSVTMPNLVGLDEQTAVTRINSSNLSYGSTNYVHSDHEAGVVFKQSTPAYTEVDEHTKIYIWVSLGPEE | -0.729 |
| HMSVTPLLDATEKDKTKYRDLWLVAVVKNGVNYARKYKFGYVYAWLYRHDRDWLLQVNNQHKIPNIT | 0.0707 |
| HMSVTVMVLRAAGDIQAGTEITDKHLATVEVGEYGLPEGIINDKDSILGKIALTDIAKGDYFFSQKLG | -0.954 |
| HMSVVKPIYIGMMTSEVEAIMGKPFEVITNNNSKNNQLWIYKYQDKRSVMLTFTNYKLIKIE | -2.7 |
| HMSWDNELLERAHKIIELYPQKRSALGPLLYLAQEKDGFISDDSIVEISNLVDITEVQVKSVSSFYSMY | -0.903 |
| HMSWGDVKLTMWGAEEDQTMLREMADAFIEQNADKGNVTIEIGVQSESSAKDTVLADPESAADVFA | 0.242 |
| HMSWRWVPVSGAYTTSALEAAGLTRAFDDQAAAEEWLGLFFDDLLREGVGEVSLYEEDRLVYGPMSL | -2.49 |
| HMSYANVEWRDFLNSLDEKYRIVVILYYVQGFKTREIAEILQINQSTVRGRLAKAREKLEQQYN | -1.4 |
| HMSYFIFDGVLNLGKQYELKGEESSHITKSRRLRPGDSFLIQDQEGQRFEAILKSFDRNSLIFTPHKPTA | -0.722 |
